Assay results from the supplement of paper PMC12042874.
± gives the uncertainty stated by the source.

Experiment: amyloid nucleation score (Sup35N fusion, yeast selection) (log enrichment); library NNK3; higher = more nucleation; inactive = no reads after selection
How it was run: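 For the nucleation score, DiMSum gave the log enrichment of output over input reads, centred on the mode score of non-aggregating sequences. Psi-negative yeast expressing Sup35N fused to peptides of 20 random codons were induced with 100 μM copper sulfate for 24 hours and grown 7 days at 30°C on medium lacking adenine and uracil. Input and output plasmid inserts were Illumina-sequenced, and sequences with under 100 input reads were excluded.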
For MVRSRLSASRRSICGPIISA, the amyloid nucleation score was “inactive”.
For MVVGCCSEGV, the amyloid nucleation score was “inactive”.
With MWDIGGARAKDCEGLSVNCI the amyloid nucleation score was “inactive”.
With MWFHLSYMAIFNGVSMQDVC the amyloid nucleation score was “inactive”.
MWFPSVLWTIISQSYEMQKL gave an amyloid nucleation score of 0.783 ± 0.12.
With MWHLTF the amyloid nucleation score was “inactive”.
In the case of MWICVILGSQIWSRWETMNG, the amyloid nucleation score is reported as “inactive”.
For MWPNITLFFSWRTEVLLYLI, the amyloid nucleation score was “inactive”.
With MWPYIMILGIVDTMWLLLSP the amyloid nucleation score was “inactive”.
In the case of MYDGKNWQLAQ, the amyloid nucleation score is reported as “inactive”.
For MYERRSLDKKVHRCYILALT, the amyloid nucleation score was “inactive”.
In the case of MYFVKMLMGVILLVNFSRW, the amyloid nucleation score is reported as “inactive”.
For MYGHIYHFRINTLWGVNL, the amyloid nucleation score was “inactive”.
With MYGLLIKNSYRKRLDLSVSI the amyloid nucleation score was “inactive”.
With MYGPMVWVDLYTCKTHRGAS the amyloid nucleation score was “inactive”.
Work on MYLPWISSSGVLNRTSMSFY yielded an amyloid nucleation score of 0.668 ± 0.12.
With MYLVR the amyloid nucleation score was “inactive”.
For MYPHAQIEYYAVAHSLAIV, the amyloid nucleation score was “inactive”.
With MYSPVFRI the amyloid nucleation score was “inactive”.
With MYTLCQMLNVRTRDMTCVTR the amyloid nucleation score was “inactive”.
With NAENFYV the amyloid nucleation score was “inactive”.
For NAEVALDHSSDLDS, the amyloid nucleation score was “inactive”.
With NAFDFSL the amyloid nucleation score was “inactive”.
For NAFGYSDVTVLVNSSLFESY, the amyloid nucleation score was “inactive”.
For NAHPWGYWSIVMRNIKVVVL, the amyloid nucleation score was “inactive”.
In the case of NALMKSVTFWCSAGISISRL, the amyloid nucleation score is reported as 1.26 ± 0.11.
For NAVSDTGRKRECFRADRFLS, the amyloid nucleation score was “inactive”.
For NCDILVLCLSCIADGRQSYE, the amyloid nucleation score was 2.96 ± 0.078.
For NCFVSICLFFASTFWLGLHN, the amyloid nucleation score was “inactive”.
NCICLSGHFGHL gave an amyloid nucleation score of 2.24 ± 0.091.
In the case of NCIECRTDTYW, the amyloid nucleation score is reported as “inactive”.
For NCLFWSEVRFHVMCFCDWLL, the amyloid nucleation score was “inactive”.
With NCPQWDVCFTYLSSGRQRAD the amyloid nucleation score was “inactive”.
With NCSSVPVSALFGEGVRKTPS the amyloid nucleation score was “inactive”.
For NCVRSLCMLWTTFTCVNDLC, the amyloid nucleation score was 2.1 ± 0.079.
In the case of NDKVGRAL, the amyloid nucleation score is reported as “inactive”.
With NEDST the amyloid nucleation score was “inactive”.
In the case of NEFGEVLDSN, the amyloid nucleation score is reported as “inactive”.
For NEIMVTLHNV, the amyloid nucleation score was “inactive”.
For NEIQAYIRWSI, the amyloid nucleation score was “inactive”.
NENPDNYLRIAVWTTFFSFC showed an amyloid nucleation score of 1.57 ± 0.095.
For NERFERMKRKSVQLPLYVVM, the amyloid nucleation score was -0.009 ± 0.53.
For NESFDCPFAGLYRKQYIWQT, the amyloid nucleation score was “inactive”.
With NESISPFVTKRHPEFMRFNC the amyloid nucleation score was “inactive”.
For NFENMSCSNTVNVLFIEPGA, the amyloid nucleation score was 1.14 ± 0.096.
With NFFNLLGMKLVR the amyloid nucleation score was “inactive”.
For NFFRDSGRMCHPKGIGDRWT, the amyloid nucleation score was “inactive”.
For NFGQTGRCYKRLRFC, the amyloid nucleation score was “inactive”.
In the case of NFINYLR, the amyloid nucleation score is reported as “inactive”.
With NFKAT the amyloid nucleation score was “inactive”.
For NFLFISYYVPGQCTV, the amyloid nucleation score was “inactive”.
For NFLLDSLSSETGFRCY, the amyloid nucleation score was -0.607 ± 1.
Work on NFLRAKDLEYRTV yielded an amyloid nucleation score of -0.761 ± 1.1.
In the case of NFSPHTFVSNSM, the amyloid nucleation score is reported as “inactive”.
For NFTMNLIIGCF, the amyloid nucleation score was 1.3 ± 0.12.
For NFTSRSAVLVR, the amyloid nucleation score was 2.21 ± 0.07.
In the case of NGDHRRCSLIT, the amyloid nucleation score is reported as “inactive”.
In the case of NGDMKARTFHTRDFKFGVPR, the amyloid nucleation score is reported as “inactive”.
In the case of NGELLCKGH, the amyloid nucleation score is reported as “inactive”.
NGRWRRFLWKNGCMELYRTG showed an amyloid nucleation score of 1.52 ± 0.085.
NGSYIFPSNCYSKIAIVMVG showed an amyloid nucleation score of 0.706 ± 0.26.
With NGVCTVNVTFCYMV the amyloid nucleation score was 2.23 ± 0.058.
For NHRYMMVTATRIKWDGVSWN, the amyloid nucleation score was “inactive”.
For NHSSYG, the amyloid nucleation score was “inactive”.
In the case of NHWGSNWWLVYKVYSGGLLM, the amyloid nucleation score is reported as “inactive”.
For NHYWQ, the amyloid nucleation score was “inactive”.
For NIICTWCGGFMRLNLNV, the amyloid nucleation score was 1.9 ± 0.073.
For NIIVWPVCGILLYTHSIS, the amyloid nucleation score was “inactive”.
In the case of NIKGFRVDKYVETL, the amyloid nucleation score is reported as “inactive”.
For NINRFLDLSSWIGYQNGYKA, the amyloid nucleation score was “inactive”.
NISLLWDGAFCIYVCLLWRG gave an amyloid nucleation score of -0.438 ± 0.9.
With NISSTSFRMGNIIGNEFLVY the amyloid nucleation score was “inactive”.
With NIVAVRCWFLDFPQDD the amyloid nucleation score was “inactive”.
NIYFLVRDSSRIRHKSVGWQ gave an amyloid nucleation score of 2.17 ± 0.06.
In the case of NKKDHAYKWISVD, the amyloid nucleation score is reported as “inactive”.
In the case of NKQNEVSRSCLSRCRYFGGD, the amyloid nucleation score is reported as “inactive”.
In the case of NKRLAQRQWDTACFQKG, the amyloid nucleation score is reported as “inactive”.
With NLDLWMQSCFHRVAVYS the amyloid nucleation score was “inactive”.
With NLDQHCRCVIGFAITYYVGY the amyloid nucleation score was “inactive”.
With NLENVLFRDRYQSSTCKLCK the amyloid nucleation score was “inactive”.
In the case of NLGGAPVL, the amyloid nucleation score is reported as “inactive”.
With NLGTTLYVEICNWRIVLYIV the amyloid nucleation score was “inactive”.
In the case of NLGYALICQSRVGGTFLVNS, the amyloid nucleation score is reported as “inactive”.
With NLIWTVHLVVTSVISDLCVG the amyloid nucleation score was “inactive”.
In the case of NLKAM, the amyloid nucleation score is reported as “inactive”.
With NLKFRRFTGNMCSTPKVCLK the amyloid nucleation score was “inactive”.
Substance NLLSLVFIRWGNYRRFKMFR has an amyloid nucleation score of 0.77 ± 0.22.
In the case of NLLSSSFLPPGWRSLKLGSS, the amyloid nucleation score is reported as “inactive”.
In the case of NLMGQTSGCQCVNTACLKPC, the amyloid nucleation score is reported as “inactive”.
Work on NLNRSLVFFSCDYAGCDGCT yielded an amyloid nucleation score of 1.48 ± 0.077.
In the case of NLPTLRVVDILCLCFYRIPS, the amyloid nucleation score is reported as “inactive”.
For NLPVF, the amyloid nucleation score was “inactive”.
For NLQNGDYITVWTEWEQEACR, the amyloid nucleation score was “inactive”.
For NLRFIRGANSA, the amyloid nucleation score was “inactive”.
In the case of NLRSISF, the amyloid nucleation score is reported as “inactive”.
NLSLFWMWELGKFYHGDRTA showed an amyloid nucleation score of 2.23 ± 0.066.
In the case of NLVCQLLGRQRDPINPVVCW, the amyloid nucleation score is reported as “inactive”.
With NLVSQK the amyloid nucleation score was “inactive”.
For NMFRARGCSDFFLACMNDSA, the amyloid nucleation score was “inactive”.
NMFVILRFVMHKIKMFNRF showed an amyloid nucleation score of 1.51 ± 0.079.
With NMNCCLKMSVYLYRLLVHM the amyloid nucleation score was “inactive”.
For NMNSWAMQWTICTHSTFVLS, the amyloid nucleation score was “inactive”.
With NMYSISTLHRKLADPVCSV the amyloid nucleation score was “inactive”.
With NNAVQLYFYRLDMSYA the amyloid nucleation score was “inactive”.
For NNFMYPELAPSARRCAWYCG, the amyloid nucleation score was “inactive”.
In the case of NNPLLIRDLHLTKVDISAVC, the amyloid nucleation score is reported as “inactive”.
Work on NNSAM yielded an amyloid nucleation score of -0.178 ± 1.1.
In the case of NNSTRLIWWCMVKMRYNHCE, the amyloid nucleation score is reported as “inactive”.
For NNVFERQFRHLNSVDGPIDN, the amyloid nucleation score was “inactive”.
In the case of NPIRGYLMYSPALSPLVG, the amyloid nucleation score is reported as “inactive”.
In the case of NPRNMTPSLVFTDWLS, the amyloid nucleation score is reported as “inactive”.
In the case of NPVRSKWYKVCCDNVGVYMD, the amyloid nucleation score is reported as “inactive”.
For NQWLCLHLCQR, the amyloid nucleation score was “inactive”.
For NQYLLCMLMWNARSGSRSMI, the amyloid nucleation score was “inactive”.
NRAGGICDKIRAQGYSYHSM gave an amyloid nucleation score of 0.475 ± 0.72.
In the case of NRAVHKSRWHRMRTFKDERR, the amyloid nucleation score is reported as “inactive”.
For NRCTCAV, the amyloid nucleation score was “inactive”.
For NRENFMVTLLSLWTCNTCQV, the amyloid nucleation score was 2.46 ± 0.054.
In the case of NREQLSSNKRNFASHRWTSV, the amyloid nucleation score is reported as “inactive”.
Substance NRFWLLCDFLFVHTCV has an amyloid nucleation score of 0.897 ± 0.2.
In the case of NRGFYQ, the amyloid nucleation score is reported as “inactive”.
With NRGSYVFMNRSEPVCSWISK the amyloid nucleation score was 1.09 ± 0.1.
In the case of NRMQVMLSVVRSSLFVWMQW, the amyloid nucleation score is reported as “inactive”.
With NRNYVGPWTLKMGLVC the amyloid nucleation score was “inactive”.
With NRPTAVSFCK the amyloid nucleation score was “inactive”.
With NRSIIVIWWNSRSSSNSWVG the amyloid nucleation score was 2.1 ± 0.072.
For NRTCNDLMTFYSWGSSR, the amyloid nucleation score was “inactive”.
With NRTDHTLNCVEIFAWIWFNL the amyloid nucleation score was “inactive”.
With NRTMLFEEKYVG the amyloid nucleation score was “inactive”.
In the case of NRTSLCKEDLVRVSFDGYLL, the amyloid nucleation score is reported as “inactive”.
With NRVAYTAQCQIIFCVGGYCL the amyloid nucleation score was 2.72 ± 0.069.
For NRVMSVLF, the amyloid nucleation score was “inactive”.
For NRVSFPRGSKFCTFL, the amyloid nucleation score was “inactive”.
In the case of NRYRTYVCLKDKRRSFKSGM, the amyloid nucleation score is reported as “inactive”.
For NSDNHYFQRTMTNFANGKGC, the amyloid nucleation score was “inactive”.
With NSDVYVSFLSVCVFAVRCLL the amyloid nucleation score was “inactive”.
For NSFIVVIYYRVRSYRYTD, the amyloid nucleation score was “inactive”.
With NSGAWLSMEMMPCRMSVYAC the amyloid nucleation score was “inactive”.
In the case of NSGGFSKDDGNGYKA, the amyloid nucleation score is reported as “inactive”.
In the case of NSHLSKNGQWIPLSAPATTT, the amyloid nucleation score is reported as “inactive”.
With NSNFFL the amyloid nucleation score was “inactive”.
Work on NSNLDSSVYSVILYGLGVWM yielded an amyloid nucleation score of 1.18 ± 0.094.
For NSVGFACKEFMHVTAQTHKM, the amyloid nucleation score was “inactive”.
For NSYFGMWVITGFFLASMCIR, the amyloid nucleation score was “inactive”.
With NTDVVCMLNWLLTW the amyloid nucleation score was “inactive”.
For NTFTPVFLTSKYSMRYGLIM, the amyloid nucleation score was “inactive”.
For NTGLNFCRASLSWTLGLYSS, the amyloid nucleation score was “inactive”.
In the case of NTGVENGREVDYARGANRSP, the amyloid nucleation score is reported as “inactive”.
With NTRMDNLTNAWRAQYALSP the amyloid nucleation score was “inactive”.
For NTVLATYRTNAVFGKTTHYN, the amyloid nucleation score was “inactive”.
In the case of NTWPTPSLWLVLNKTLRKTS, the amyloid nucleation score is reported as “inactive”.
In the case of NTYVIVPWKLLTNFDEFPHR, the amyloid nucleation score is reported as “inactive”.
For NVASM, the amyloid nucleation score was “inactive”.
With NVGTS the amyloid nucleation score was “inactive”.
NVIMVFVLCCFWCEGTQKHV showed an amyloid nucleation score of 1.83 ± 0.056.
For NVIRGGQGLVGPAIMFRDGV, the amyloid nucleation score was “inactive”.
In the case of NVLYLQLRPMNLCEANSEIG, the amyloid nucleation score is reported as “inactive”.
In the case of NVMIDDVLARYYRVRRGLVG, the amyloid nucleation score is reported as “inactive”.
In the case of NVNEQSHPM, the amyloid nucleation score is reported as “inactive”.
With NVYIVFFNFKTQ the amyloid nucleation score was 2.34 ± 0.058.
